Data published in publication PMC12552534.

What was measured:
[1] = target: N terminally histidine-tagged N-terminal domain of STAT3 (STAT3ND) (human) (UniProt P40763); experiment: SEC; Y3 and STAT3ND alone or mixed equimolar (100 μM in text and methods, 50 μM in the legend), preincubated 10 min on ice; Superdex 75 Increase 10/300 GL, 20 mM Tris-HCl pH 8.0, 100 mM NaCl, 4 °C, 0.5 ml/min; fractions on SDS-PAGE
[2] = target: N terminally histidine-tagged N-terminal domain of STAT3 (STAT3ND) (human) (UniProt P40763); experiment: native MS; Y3 (50 μM) complexed with STAT3ND (50 μM), buffer-exchanged to 450 mM ammonium acetate pH 8.0, nano-ESI, native condition
[3] = target: N terminally histidine-tagged Y3 (C-terminal region of Sendai virus C protein) (Sendai virus); experiment: as above
[4] = target: C terminally LgBiT-fused C protein (Sendai virus); experiment: split reporter (BiFC, NanoBiT); NanoBiT; 293T cells co-transfected with LgBiT-fused C and SmBiT-fused STAT1, STAT3 or SV40 large T antigen (negative control), 24 h; luciferase activity measured in NP-40 lysates, normalised to GAPDH; control set to 1
Chain of C terminally LgBiT-fused C protein (Sendai virus) (P04862 1-204): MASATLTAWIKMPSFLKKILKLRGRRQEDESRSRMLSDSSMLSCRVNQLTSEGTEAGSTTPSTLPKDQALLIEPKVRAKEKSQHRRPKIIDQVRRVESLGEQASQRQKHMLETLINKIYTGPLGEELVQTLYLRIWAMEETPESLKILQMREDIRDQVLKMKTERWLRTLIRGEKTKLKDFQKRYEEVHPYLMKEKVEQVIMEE

Substance: N terminally histidine-tagged N-terminal domain of STAT3 (STAT3ND) (from UniProt P40763 3-138) (domain or fragment)
- stoichiometry N [1]: 2

Substance: N terminally histidine-tagged Y3 (C-terminal region of Sendai virus C protein) (domain or fragment)
- stoichiometry N (Y3 per STAT3ND (1:2)) [2]: 0.5
- stoichiometry N [3]: 2

Substance: N terminally SmBiT-fused STAT3 (from UniProt P40763 1-770) (natural protein)
- luciferase activity, fold lower than with SmBiT-fused STAT1 [4]: 4.8 fold
- luciferase activity, fold over the SmBiT-fused SV40 large T antigen negative control [4]: 1.3 fold
